The values that follow come from US20250222125A1, “Anti-FGFR2b Antibodies, Conjugates and Methods of Use” (BeiGene, Ltd., priority 2024, published 2025).

The target in experiment [1] is T1, Human FGFR2c (Homo sapiens, UniProt P21802). As to the kind of experiment: FACS binding on Expi293 cells, human FGFR2c (Example 10). Conditions: for Emax (MFI): Expi293 cells overexpressing human FGFR2c. Here is the method: (§1) To evaluate the binding activity of anti-FGFR2b antibodies to native FGFR2b on living cells, Expi293 cells were engineered to overexpress human FGFR2b, cyno FGFR2b, mouse FGFR2b, or human FGFR2c. Expi293 cells expressing antigens were seeded in 96-well plates, and were incubated with serially diluted anti-FGFR2b antibodies. Goat anti-human IgG [Alexa Fluor® 647] […] The change of mean fluorescent intensity (MFI) of humanized candidates BGAh9239 and BGAh9179 was measured by flow cytometry. EC50 values for dose-dependent binding to native human FGFR2b, cyno FGFR2b, mouse FGFR2b, and human FGFR2c were determined using sigmoidal dose-response curves of nonlinear fit from GraphPad Prism™.
A general note: In flow cytometry, cells or beads pass a laser one at a time.

Experiment [2] deals with T1, Human FGFR2c. As to the kind of experiment: ELISA binding to recombinant human FGFR2c (Example 11). Conditions: for Emax (A450): human FGFR2c; for binding to human FGFR2c: in words. A general note: ELISA stands for enzyme-linked immunosorbent assay.
Experiment [3] relates to Cyno FGFR2b. As to the kind of experiment: SPR affinity determination, cyno FGFR2b (Example 9). The class given is binding. Here is the method: (§2) For affinity determination, antibodies were captured by anti-human Fc antibodies, and used in the affinity assay based on surface plasmon resonance (SPR) technology. SPR signals were analyzed to calculate the association rates (ka) and dissociation rates (kd) by using the one-to-one Langmuir binding model (BIA Evaluation Software, GE Life Sciences). The equilibrium dissociation constant (KD) was calculated as the ratio of kd/ka. Rmax represents the maximal feasible SPR signal generated by an interaction between a ligand-analyte pair and is represented in response units (RU). BGAh9239 and BGA9179 show similar binding profiles to human FGFR2b and cyno FGFR2b, and are similar to their parental antibodies BGAm1823 and BGAm1371, respectively.

The test system of a further experiment is BaF3_hFGFR2b OE cells. As to the kind of experiment: Ligand-induced proliferation inhibition assay in BaF3_hFGFR2b OE cells. Type of experiment: cell-based. As to conditions: antibody 10 μg/ml, heparin 5 μg/ml, 72 hours. As to the method:
The inhibition activity of antibody on ligand-induced cell proliferation was evaluated in an FGFR2b engineered BaF3 cell line system (BaF3_hFGFR2b OE). BaF3 cells are dependent on interleukin-3 (IL-3) for growth. The BaF3 system allows for testing of kinases and kinase inhibitors. Some protein kinases can render BaF3 cells to be independent of IL-3, whereas kinase inhibitors antagonize this effect. Cells were seeded in 96-well plates at 30,000 cells/well in RPMI-1640 medium containing 10% fetal bovine serum. Anti-FGFR2b antibodies at a concentration of 10 μg/ml were added to the assay plates. Recombinant human FGF7 or FGF10 protein (40 ng/ml) in the presence of heparin (5 μg/ml) was added to the assay plates. The plates were incubated at 37° C., 5% CO2, 95% humidity in an incubator for 72 hours. Following incubation, 50 μl Cell Titer Glo reagent was added to each well and the plates were mixed for 1 min and then incubated at RT for 10 min. Luminescence signals were detected and recorded.
The Ba/F3 system is used to investigate downstream oncogenic signaling pathways and the susceptibility of driver variants to therapeutics. Driver-addicted Ba/F3 cells die when the driver-engaged signaling pathway is inhibited, and this effect can be rescued by re-introduction of […].
FIGS. 6 and 7 show the results of Ba/F3 proliferation assays. The net growth on Ba/F3 cells overexpressing FGFR2b is reported after treatment with anti-FGFR2b antibodies of the present disclosure. Normal Ba/F3 cells die shortly after withdrawal of exogenous […]. […] Comparator BGA2311 binds at the N-terminus and is not considered to be a ligand blocker. Thus, BGAm1371 may partially block the FGFR2b signaling pathway, such as the signaling pathway mediated by FGF7.

Experiment [4] has as its system phosphorylated FGFR in SNU-16 cells. As to the kind of experiment: Inhibition of FGFR2 signaling in SNU-16 cells (Western blot of pFGFR). Type of experiment: cell-based. As to conditions: antibody 10 μg/ml, 2 hours; for FGF10-induced FGFR phosphorylation: FGF10 10 ng/ml. As to the method:
Inhibition of the FGFR2 signaling pathway by the humanized antibodies was investigated. SNU-16 cells were grown in RPMI-1640 medium with 10% FBS, collected and washed twice with free medium and then seeded in 12-well plates at 1.5E6 cells/well in serum-free RPMI-1640. The plates were incubated at 37° C., 5% CO2, and 95% humidity in an incubator overnight. Anti-FGFR2b antibodies at a concentration of 10 μg/ml were added to the assay plates. Recombinant human FGF7 or FGF10 protein (10 ng/ml) in the presence of heparin (5 μg/ml) was added to the assay plates. The plates were incubated in a 37° C., 5% CO2, 95% humidity incubator for 2 hours. Following 2 hours incubation, cells were collected and washed twice with cold PBS. NP40 lysis buffer containing 1×PMSF and 1× Protease plus phosphatase inhibitors were added to the cell pellets. The mixture was pipetted up and down to suspend the pellet. The mixture was inverted gently and each placed for 10 minutes on ice, for a total of 30 minutes. The mixture was centrifuged at 12000× rpm for 10 minutes to pellet the cell debris. The supernatant was transferred to a new tube to quantify total protein concentration by BCA Kit. The protein samples were then split and stored at −80° C. for further Western blotting to detect the expression of pFGFR and total FGFR2.
Western blotting procedure: The completely thawed protein samples were mixed with 4×SDS loading buffer and were heated for 10 min at 37° C. Then the mixtures were centrifuged at ˜3500×rpm for 5 min. Equal amounts of proteins were loaded into an SDS-PAGE gel, whereafter proteins were transferred to PVDF membranes using iBlot. The membranes were then subjected to Western blotting analysis, focusing on phosphorylated FGFR and total FGFR2.

The next experiment has as its target T2, Mouse FGFR2b (Mus musculus, UniProt P21803).
T2 construct: expressed in transfected cells; host or cells: Expi293
As to the kind of experiment: FACS binding on Expi293 cells, mouse FGFR2b (Example 10). As to conditions: Expi293 cells overexpressing mouse FGFR2b. Here is the method: as §1

The subject of experiment [5] is Cyno FGFR2b. The experiment can be described thus: ELISA binding to recombinant cyno FGFR2b (Example 11).
In experiment [6] the target is T3, human FGFR2b (Homo sapiens, UniProt P21802). As to the kind of experiment: FACS binding to native FGFR2b on Expi293 cells, human FGFR2b (Example 10). As to conditions: Expi293 cells overexpressing human FGFR2b. As to the method:
as §1

The target in experiment [7] is T3, human FGFR2b. As to the kind of experiment: SPR affinity determination, human FGFR2b (Example 9). As to conditions: for Kd: kd/ka. The class given is binding. As to the method:
as §2

Experiment [8] addresses T3, human FGFR2b. The experiment can be described thus: ELISA binding to recombinant human FGFR2b (Example 11).
The target in experiment [9] is T4, soluble human FGFR2b proteins (Homo sapiens, UniProt P21802).
T4 construct: soluble human FGFR2b proteins (his tag, in-house generated); His tag; made in house
As to the kind of experiment: SPR binding kinetics (Biacore 8K, Example 5). Conditions: room temperature. Here is the method:
The binding affinity and kinetics of purified anti-FGFR2b antibodies were determined by surface plasmon resonance (Biacore 8K, GE Life Sciences) at room temperature. Briefly, mouse anti-human IgG Fc antibody was immobilized via amine coupling onto a activated CM5 biosensor chip (Cat. No. BR100530, GE Life Sciences). Purified monoclonal antibody candidates were flowed over the chip surface and captured by anti-human IgG antibody. Then a serial dilution of soluble human FGFR2b proteins (his tag, in-house generated) were injected over the antibodies captured surface and changes in surface plasmon resonance signals were analyzed to calculate the association rates (kon) and dissociation rates (koff) by using the one-to-one Langmuir binding model (BIA Evaluation Software, GE Life Sciences). The equilibrium dissociation constant (KD) was calculated as the ratio koff/kon.
In general terms: Surface plasmon resonance follows binding to a sensor surface in real time, without labels.

A word on the EC50: it is the midpoint of the concentration-response curve. A word on the Kd: it is the free concentration of one partner at which half of the binding sites on the other are occupied at equilibrium, for simple one-to-one binding.

T1 sequence (P21802 22-821): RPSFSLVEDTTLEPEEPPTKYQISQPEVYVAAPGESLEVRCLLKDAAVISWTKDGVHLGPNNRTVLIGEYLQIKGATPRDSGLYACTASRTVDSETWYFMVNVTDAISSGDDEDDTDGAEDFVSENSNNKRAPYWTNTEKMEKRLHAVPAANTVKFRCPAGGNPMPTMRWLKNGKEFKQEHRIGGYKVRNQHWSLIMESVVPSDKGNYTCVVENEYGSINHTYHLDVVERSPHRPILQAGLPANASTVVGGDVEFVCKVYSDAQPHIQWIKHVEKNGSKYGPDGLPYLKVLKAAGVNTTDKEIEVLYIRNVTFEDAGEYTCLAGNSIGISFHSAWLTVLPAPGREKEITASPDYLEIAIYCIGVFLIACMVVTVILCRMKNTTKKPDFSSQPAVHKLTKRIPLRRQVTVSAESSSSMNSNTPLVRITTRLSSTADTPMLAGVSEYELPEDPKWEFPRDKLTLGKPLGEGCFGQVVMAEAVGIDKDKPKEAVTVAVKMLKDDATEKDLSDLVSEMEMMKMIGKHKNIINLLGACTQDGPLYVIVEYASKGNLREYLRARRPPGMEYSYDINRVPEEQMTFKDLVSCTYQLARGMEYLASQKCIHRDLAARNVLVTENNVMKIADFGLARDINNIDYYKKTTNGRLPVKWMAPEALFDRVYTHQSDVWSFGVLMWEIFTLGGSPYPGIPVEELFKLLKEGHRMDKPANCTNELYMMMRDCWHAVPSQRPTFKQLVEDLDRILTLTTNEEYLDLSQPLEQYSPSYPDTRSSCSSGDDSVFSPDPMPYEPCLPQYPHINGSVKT
T2 sequence (P21803 22-707 isoform P21803-2 limits assumed): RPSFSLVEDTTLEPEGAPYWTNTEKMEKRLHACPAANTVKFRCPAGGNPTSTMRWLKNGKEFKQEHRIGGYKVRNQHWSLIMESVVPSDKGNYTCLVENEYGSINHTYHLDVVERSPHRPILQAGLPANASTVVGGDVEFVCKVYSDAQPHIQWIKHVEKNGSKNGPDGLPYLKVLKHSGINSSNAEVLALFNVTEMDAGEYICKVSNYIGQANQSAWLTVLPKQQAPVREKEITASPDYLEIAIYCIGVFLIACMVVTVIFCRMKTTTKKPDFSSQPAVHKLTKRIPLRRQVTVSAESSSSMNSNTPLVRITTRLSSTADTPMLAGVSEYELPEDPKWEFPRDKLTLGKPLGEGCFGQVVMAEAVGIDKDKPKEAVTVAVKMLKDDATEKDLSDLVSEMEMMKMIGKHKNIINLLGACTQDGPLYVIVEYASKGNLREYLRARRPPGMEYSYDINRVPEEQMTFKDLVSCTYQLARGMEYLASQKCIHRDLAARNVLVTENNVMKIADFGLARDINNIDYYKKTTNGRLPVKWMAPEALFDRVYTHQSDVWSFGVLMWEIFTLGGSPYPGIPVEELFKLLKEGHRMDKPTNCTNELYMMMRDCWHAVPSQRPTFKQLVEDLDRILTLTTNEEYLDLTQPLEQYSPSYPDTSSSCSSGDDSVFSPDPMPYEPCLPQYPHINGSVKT
T4 sequence (P21802 22-378 isoform P21802-3 limits assumed): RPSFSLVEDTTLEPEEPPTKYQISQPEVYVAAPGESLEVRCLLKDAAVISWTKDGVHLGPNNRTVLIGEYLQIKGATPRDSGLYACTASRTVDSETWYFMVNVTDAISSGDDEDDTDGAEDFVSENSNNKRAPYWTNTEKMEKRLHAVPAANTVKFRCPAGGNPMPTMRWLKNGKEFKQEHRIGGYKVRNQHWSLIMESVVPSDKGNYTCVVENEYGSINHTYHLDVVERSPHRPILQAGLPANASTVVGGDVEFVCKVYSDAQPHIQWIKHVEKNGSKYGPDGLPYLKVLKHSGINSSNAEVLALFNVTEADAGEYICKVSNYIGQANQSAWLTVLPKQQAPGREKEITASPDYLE
T3 sequence (P21802 22-822 isoform P21802-3 limits assumed): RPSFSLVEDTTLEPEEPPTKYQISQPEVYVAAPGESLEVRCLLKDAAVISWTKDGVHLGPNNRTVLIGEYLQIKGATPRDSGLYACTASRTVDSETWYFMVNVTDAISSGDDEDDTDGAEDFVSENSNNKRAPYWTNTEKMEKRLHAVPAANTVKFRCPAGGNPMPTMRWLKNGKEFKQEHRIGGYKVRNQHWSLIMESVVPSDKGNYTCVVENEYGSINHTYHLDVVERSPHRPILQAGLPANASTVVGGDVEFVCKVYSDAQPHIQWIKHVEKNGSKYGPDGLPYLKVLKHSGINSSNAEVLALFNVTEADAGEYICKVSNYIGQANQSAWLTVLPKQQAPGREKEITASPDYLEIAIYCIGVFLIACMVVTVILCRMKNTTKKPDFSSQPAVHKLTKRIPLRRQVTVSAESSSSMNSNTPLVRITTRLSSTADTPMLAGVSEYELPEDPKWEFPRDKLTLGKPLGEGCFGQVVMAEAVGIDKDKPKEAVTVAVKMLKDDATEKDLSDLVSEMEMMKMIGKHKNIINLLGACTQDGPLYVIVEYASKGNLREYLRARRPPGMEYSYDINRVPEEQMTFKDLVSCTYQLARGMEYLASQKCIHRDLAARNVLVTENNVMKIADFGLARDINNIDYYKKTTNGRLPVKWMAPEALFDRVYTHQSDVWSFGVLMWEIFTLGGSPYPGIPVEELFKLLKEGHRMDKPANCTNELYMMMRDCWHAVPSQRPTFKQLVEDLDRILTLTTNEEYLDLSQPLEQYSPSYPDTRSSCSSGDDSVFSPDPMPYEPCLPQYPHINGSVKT

B1: BGAm1823: parental murine anti-FGFR2b antibody; VH SEQ ID NO: 28, VL SEQ ID NO: 30 (antibody, V domains shown)
VH: EVQLQQSGAELVKPGASVKISCKASGYAFSIYWMNWVKQRPGKGLEWIGQIYPENGDTNYNGKFKGKATLTADKSSSTAYMHLSSLTSEDSAVYFCARGGFDYWGQGTTLTVSS
VL: NIVMTQSPASLSASVGETVTITCRASENIYSNLAWYQQKQGKSPQLLVYTATNLADGVPSRFSGSGSGTQFSLKINSLQPEDFGSYYCQHFYGILYTFGSGTRLEIK
modifications: Synthetic: VH AA; Synthetic: VL AA
As to B1, in the experiment with Human FGFR2c [1], the “Emax (MFI)” value is 22634 MFI. Besides, in the experiment with Human FGFR2c [2], the “Emax (A450)” value came to 0.116 A450 and the “binding to human FGFR2c” value is on record as “no detectable binding”. For the same molecule, in the experiment on Cyno FGFR2b [3], the ka came to 7.35E+04 M^−1S^−1 and the kd is 1.80E−03 S^−1. Moreover, the “inhibition of FGF7-induced BaF3_hFGFR2b cell proliferation” value in the experiment on BaF3_hFGFR2b OE cells (FGF7 40 ng/ml) was “potently inhibit”. The “inhibition of FGF10-induced BaF3_hFGFR2b cell proliferation” value in the experiment with BaF3_hFGFR2b OE cells (FGF10 40 ng/ml) is on record as “potently inhibit”. Also, in experiment [4] (FGF7 10 ng/ml), the “FGF7-induced FGFR phosphorylation” value is on record as “down-regulation of phosphorylated FGFR”. Further, in experiment [4], the “FGF10-induced FGFR phosphorylation” value is given as “down-regulation of phosphorylated FGFR”. Also, in the experiment with Mouse FGFR2b, a half-maximal effect (EC50) was put at 3.37 nM and the “Emax (MFI)” value is on record as 5194795 MFI. The “Emax (A450)” value with Cyno FGFR2b [5] was 2.996 A450. Moreover, in the experiment with human FGFR2b [6], the 50% effective concentration (EC50) was found to be 2.12 nM and the “Emax (MFI)” value was determined as 3092441 MFI. Moreover, in the experiment with human FGFR2b [7], the Rmax worked out at 85.7 RU, the ka was 7.63E+04 M^−1S^−1, the kd stood at 1.85E−03 S^−1 and the equilibrium dissociation constant (Kd) stood at 24.2 nM. Also, in the experiment with human FGFR2b [8], the EC50 is 0.0442 nM and the “Emax (A450)” value was 2.952 A450.

B2: BGAh9179: humanized anti-FGFR2b IgG1 antibody from murine BGAm1371; VH SEQ ID NO: 21, VL SEQ ID NO: 22 (antibody, V domains shown)
VH: QVQLVQSGAEVKKPGASVKVSCKASGYTITDTYIHWVRQAPGQGLEWMGRIDPAEGNTMFASEFQGRVTMTADTSTSTVYMELSSLRSEDTAVYYCARSKIHYDYDEGFAYWGQGTLVTVSS
VL: DIVLTQSPDSLAVSLGERATINCRASESVDDYGYSFLHWYQQKPGQPPKLLIYRASNLESGVPDRFSGSGSGTDFTLTISSLQAEDVAVYYCQQSNQNPRTFGGGTKVEIK
modifications: Synthetic: VH AA; Synthetic: VL AA
For the molecule B2, the “Emax (MFI)” value is reported as 21749 MFI in the experiment with Human FGFR2c [1], 5145011 MFI with Mouse FGFR2b and 2977577 MFI with human FGFR2b [6]. Besides, the “binding to native human FGFR2c” value with Human FGFR2c [1] (living Expi293 cells, in words) is “no detectable binding”. Moreover, the “Emax (A450)” value in the experiment with Human FGFR2c [2] came to 0.086 A450; in the experiment on Cyno FGFR2b [5], 2.953 A450; with human FGFR2b [8] it was 2.993 A450. Also, the “binding to human FGFR2c” value with Human FGFR2c [2] is given as “no detectable binding”. The ka in the experiment on Cyno FGFR2b [3] stood at 8.37E+04 M^−1S^−1; in [9] (antibody captured), 80600 M⁻¹ s⁻¹; with human FGFR2b [7], 8.16E+04 M^−1S^−1. Moreover, the values for the kd (on Cyno FGFR2b [3]; in [9] (antibody captured); with human FGFR2b [7]) were 1.72E−03 S^−1, 0.00112 s⁻¹ and 1.78E−03 S^−1, respectively. In [4], the “FGF10-induced FGFR phosphorylation” value is “little or no down-regulation”. Besides, the EC50 stood at 4.25 nM in the experiment with Mouse FGFR2b, 3.29 nM in the experiment with human FGFR2b [6] and 0.0518 nM with human FGFR2b [8]. Also, the Kd came to 13.9 nM in [9] (koff/kon) and 21.8 nM with human FGFR2b [7]. This molecule had an Rmax in the experiment with human FGFR2b [7] of 38.3 RU.
